The results in this text go back to the supplement of paper PMC9170038.

The data set relates to MS2 coat protein. Nature of the data set: apparent KD of MS2 coat protein; designed switch direction (-1 OFF switch, 1 ON switch): -1; higher = weaker reporter binding. In outline: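 An oligonucleotide input, 200 uM small-molecule ligand, or no input was present during titration of SNAP-549-labelled MS2 coat protein, which was doubled from 0.7 or 1.5 nM to 3 µM. Designed RNA switches had been transcribed on Illumina chips by stalled E. coli RNA polymerase. Apparent KD per design is the median over clusters of curves fitted to normalised cluster fluorescence.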

[1] abbreviates: input ligand: microRNA oligo, concentration not stated.
Setting [2] is: Eterna round: R95, input ligand: microRNA oligo, concentration not stated.
The mark [3] stands for this setting: Eterna round: R95, input ligand: FMN 200 uM.
Setting [4] is: Eterna round: R95, input ligand: none.

For the sequence “CCGAACUCAGGAUAUGCAUGUAUAACAGAGAGAUCCACUAAACAUGAGGAUCACCCAUGUAGAAGGGAGUCGGG [Eternabot (L1) Solution 14] (Eterna round: R97, puzzle: Exclusion 2)”, the “apparent KD of MS2 coat protein” value was 887 nM (input ligand: FMN 200 uM) and 365 nM (input ligand: none).

Regarding “AAGAAGAAGUAAGGAUAUGAAGAUUUGGUGAUAACAUGAGGAUCACCCAUGUGAAAACAAUAAGAUCAGAAGGUAUAAGAAGAA [AK ExNG2-2.1] (Eterna round: R96, puzzle: Exclusion NG 2)”, the “apparent KD of MS2 coat protein” value came to 53.9 nM (input ligand: FMN 200 uM), 42.1 nM under setting [1] and 72.1 nM (input ligand: none).

Turning to “CAAUAUUAUCGAGGAUAUCCUAUUGUAUUUCAGGGAGAAGGCGGACUCAACAUGAGGAUCACCCAUGUAAGACGGGUACUAGAU [Ex NG1 #19] (Eterna round: R96, puzzle: Exclusion NG 1)”, the “apparent KD of MS2 coat protein” value (input ligand: FMN 200 uM) worked out at 92.2 nM, the “apparent KD of MS2 coat protein” value under setting [1] worked out at 69.8 nM and the “apparent KD of MS2 coat protein” value (input ligand: none) is 89.7 nM.

On to “GUCAGCUCGUGAGGAUAUACAUGAGGAUCACCCAUGUGAUCAAUAGCAGCUUCGGCUGCAUACAUGUAGAAGGCACGAGCUGAU [ENG2/6-A2] (Eterna round: R96, puzzle: Exclusion NG 2)”, for which the “apparent KD of MS2 coat protein” value under setting [1] came out at 27.5 nM.

Consider “UUGAUGUCAUCAGGAUAUAGUAUUUAAGACAUAUCUUCUUUCAAACAUGAGGAUCACCCAUGUCGCUAGAAGGGAUGAUUGAUU [JR_ExcNG2_Sub084] (Eterna round: R96, puzzle: Exclusion NG 2)”, for which the “apparent KD of MS2 coat protein” value under setting [1] was 11.9 nM.

For the sequence “UUUUGUUCAGGAUAUGUAGAAUUUAACAUGAGGAUCACCCAUGUAGAUCCUGAAUAAACUACAGAAGGGAACAUUU [Mat - Exclusion 5 - Eli Mod - D15] (Eterna round: R97, puzzle: Exclusion 5)”, the “apparent KD of MS2 coat protein” value (input ligand: FMN 200 uM) was 215 nM and the “apparent KD of MS2 coat protein” value (input ligand: none) worked out at 27.4 nM.

As to “AGGACAUGAGGAUCACCCAUGUAGUGAGGUGUAUCCGAAGACGAGGAUAUACAGAGGAAAUAUCUGUAGAAGGUGUUAUAAAUU [Atleusan] (Eterna round: R96, puzzle: Exclusion NG 3)”, the “apparent KD of MS2 coat protein” value was determined as 726 nM (input ligand: FMN 200 uM), 229 nM under setting [1] and 766 nM (input ligand: none).

Regarding “GUAGAGUGAGGAUAUACGAGAUCGAUAGAUCGGCGAUCCAAACAUGAGGAUCACCCAUGUAGAAGGCACUCUAC [Mat - Exclusion 2 - Eli Mod - D6] (Eterna round: R97, puzzle: Exclusion 2)”, the “apparent KD of MS2 coat protein” value (input ligand: FMN 200 uM) amounted to 455 nM and the “apparent KD of MS2 coat protein” value (input ligand: none) was determined as 90.4 nM.

With “GAGGAUAGAGGAUAUGCAUAGAUACGGAUUCGUGUAGUACUACAUGAGGAUCACCCAUGUAGAAGGCUGUCCUG [JL-ex2-2.01 mat747 mod] (puzzle: Exclusion 2)”, under setting [2], the “apparent KD of MS2 coat protein” value was 12.9 nM.

Turning to “CCCGUGUGAGGAUAUACUCUAAGCAUUGACAGUUGCUACAGGUAGAAGGCACAUGAGGAUCACCCAUGUCCCGG [EX4 C.13] (Eterna round: R97, puzzle: Exclusion 4)”, the “apparent KD of MS2 coat protein” value is, setting by setting: (input ligand: FMN 200 uM) 66 nM; (input ligand: none) 295 nM.

Consider “UGUACGAUGCGUGCUGACAUGCGUCGUGCAGCAGGUGUUACAUGAGGAUCACCCAUGUCCUCAUUUGCUCGUCUUGU [SL-sv3-2.09 JL mod] (puzzle: Sensor v3, turn-off variant 2)”, for which the “apparent KD of MS2 coat protein” value reads like this: under setting [3], 379 nM; under setting [2], 185 nM; under setting [4], 374 nM.

For the sequence “UAAAACCGGUGAGGAUAUUUUUAAUAGAGCUUUAUGAUAUACAUGAGGAUCACCCAUGUUACGUUAAAGAAGGCAUCGGAAAAU [Mat - Exclusion NG 2 - Mod of JL - D99] (Eterna round: R96, puzzle: Exclusion NG 2)”, the “apparent KD of MS2 coat protein” value is, setting by setting: (input ligand: FMN 200 uM) 13.7 nM; under setting [1], 14.5 nM; (input ligand: none) 19.9 nM.

For the sequence “GGAUUUCGAGGAUAUACACGCAAAUAGGUGUAUCCUUUAGCACAUGAGGAUCACCCAUGUAGAAGGCGGGUACU [Eternabot (L1) Solution 19] (Eterna round: R97, puzzle: Exclusion 2)”, the “apparent KD of MS2 coat protein” value is 136 nM (input ligand: FMN 200 uM) and 150 nM (input ligand: none).

For the sequence “GUUCACGUAGGAUAUACGGUUGGUGUGCGCGAAGGCCUUUGACAUGAGGAUCACCCAUGUAGAAGGACGAUGAA [EX2 C.24] (Eterna round: R97, puzzle: Exclusion 2)”, the “apparent KD of MS2 coat protein” value reads like this: (input ligand: FMN 200 uM) 32.1 nM; (input ligand: none) 31 nM.

Regarding “UACAUGAGGAUCACCCAUGUUUUGUCGUGUAUGGUAAUAAUCUAGGAUAUCAAUUUAUUUAUUUAUGAGAAGGAGAAUAAUAAA [JMF's solution 4] (Eterna round: R96, puzzle: Exclusion NG 3)”, the “apparent KD of MS2 coat protein” value stood at 67.1 nM (input ligand: FMN 200 uM), 55.9 nM under setting [1] and 61.7 nM (input ligand: none).

Turning to “GGUUGGCGAGGAUAUACAUGAGGAUCACCCAUGUGAUCCUAAGGCUGAUCAAGCCUAUGUAGAAGGCGCAAAUC [salish99_ex3_r4_009] (Eterna round: R97, puzzle: Exclusion 3)”, the “apparent KD of MS2 coat protein” value is, setting by setting: (input ligand: FMN 200 uM) 49.7 nM; (input ligand: none) 260 nM.

Turning to “CUCCGGCGUGUAGGAUAUGGUUCCGUUUCGGUUCCAGAAGGACAUGAGGAUCACCCAUGUGCCUGUCGUCGGUCGUCACCGGGC [salish99_ExNG1_r04_217] (Eterna round: R96, puzzle: Exclusion NG 1)”, the “apparent KD of MS2 coat protein” value (input ligand: FMN 200 uM) is 17.8 nM, the “apparent KD of MS2 coat protein” value under setting [1] amounted to 10.3 nM and the “apparent KD of MS2 coat protein” value (input ligand: none) was found to be 15.4 nM.

“AAUAACAAGCCGAUCCUUCACAUGAGGAUCACCCAUGUGCUCGUCUUGUAAAGUACUAUCACGAAAGUGAUAGUACA (Eterna round: R97, puzzle: Sensor, turn-off variant 1)”: the “apparent KD of MS2 coat protein” value by setting is: (input ligand: FMN 200 uM) 22.6 nM; (input ligand: none) 19.9 nM.

As for “CUUUUAAAGCAACAUCAGCACAUGAGGAUCACCCAUGUGGCGUCCCGACUGUGCACGAUUGCUCGUCUUGACUGUAU [Eternabot (L1) Solution 25] (Eterna round: R97, puzzle: Sensor, turn-off variant 1)”, the “apparent KD of MS2 coat protein” value (input ligand: FMN 200 uM) was 179 nM and the “apparent KD of MS2 coat protein” value (input ligand: none) was 185 nM.

As to “GAGGCCAUAGGAUAUCUGUUACGGGACAUGAGGAUCACCCAUGUACUGGCAAGUCCUCGGAGAGAAGGAUGACUCU [Eternabot (L1) Solution 68] (Eterna round: R97, puzzle: Exclusion 5)”, the “apparent KD of MS2 coat protein” value turned out to be 21.9 nM (input ligand: FMN 200 uM) and 18.3 nM (input ligand: none).

Regarding “GUGAGCAGACGGAGAUCCUACAUGAGGAUCACCCAUGUCUCACUAGCUUUUUGCUCGUCUUAUCCUCCUCUGUUCAC [Elimod 24 - Jieux - Sensor, turn-off variant 1] (Eterna round: R97, puzzle: Sensor, turn-off variant 1)”, the “apparent KD of MS2 coat protein” value was 21.8 nM (input ligand: FMN 200 uM) and 21.6 nM (input ligand: none).

With “UUUUAGAGAGGAUAUAUUAUGUGAAACAUGAGGAUCACCCAUGUAAUAUAAUGGAUGUAAAUAGAAGGCUCAUUUA [Mat - Exclusion 5 - JL mod - D22] (puzzle: Exclusion 5)”, the “apparent KD of MS2 coat protein” value came to 28.4 nM under setting [3], 28.4 nM under setting [2] and 41.1 nM under setting [4].

In the case of “ACUUACUGAGGAUAUACAUAGAUUUACAUGAGGAUCACCCAUGUUCCUCUAAGUAUAUAUGUAGAAGGCAGAAGAG [Mat - Exclusion 5 - JL Mod - D40] (Eterna round: R97, puzzle: Exclusion 5)”, the “apparent KD of MS2 coat protein” value reads like this: (input ligand: FMN 200 uM) 172 nM; (input ligand: none) 145 nM.

Turning to “AAACACGGAGGAUAUACAGGUUCAGGAAACCGAACCGGCUGACAUGAGGAUCACCCAUGUAGAAGGCCGAAAUA [EX2 A.23] (Eterna round: R97, puzzle: Exclusion 2)”, the “apparent KD of MS2 coat protein” value turned out to be 19.5 nM (input ligand: FMN 200 uM) and 20.9 nM (input ligand: none).

“ACCAUUUACUAAUCCUCUAUACAUGAGGAUCACCCAUGUUCUGAGGAUAUCAUCGUUCGCCGCGUUGAGAAGGCAGAGCAUUCG [Ariestion] (Eterna round: R96, puzzle: Exclusion NG 3)”: the “apparent KD of MS2 coat protein” value reads like this: (input ligand: FMN 200 uM) 157 nM; under setting [1], 22.4 nM; (input ligand: none) 24.8 nM.

Consider “GCCCGGGCAGGAUAUACAAGCUUGAGCUGAAAAGUUCGAGUACAUGAGGAUCACCCAUGUAGAAGGGCCCGGGC [-37.5, -35.6 kcal, A 28% 1 bis] (Eterna round: R97, puzzle: Exclusion 2)”, for which the “apparent KD of MS2 coat protein” value runs as follows: (input ligand: FMN 200 uM) 29.4 nM; (input ligand: none) 18.7 nM.

As to “GAUUAUGCGAGCUUUAGGGACAUGAGGAUCACCCAUGUUCGUCUUAUUGAUCUAGGUGCACUAACAUACCUAAAUCU [JMF 34] (puzzle: Sensor v3, turn-off variant 1)”, the “apparent KD of MS2 coat protein” value was 24 nM under setting [3], 41.2 nM under setting [2] and 27.7 nM under setting [4].

Consider “GUCAGCUCGUGAGGAUAUGCACAUGAGGAUCACCCAUGUAAGAUCAAGCUGCUUCGGCAGCAAGUGCAGAAGGCACGAGCUGAU [ENG2/9-A3] (Eterna round: R96, puzzle: Exclusion NG 2)”, for which the “apparent KD of MS2 coat protein” value turned out to be 148 nM (input ligand: FMN 200 uM), 179 nM under setting [1] and 210 nM (input ligand: none).

“UAUAUAUAGUAAGGAUAUGUAAUUAUUCUAUAAACAGAAGGUACUGACAUGAGGAUCACCCAUGUUUUAGUGUGGGCAUGUAGA [JMF's solution 40] (Eterna round: R96, puzzle: Exclusion NG 1)”: the “apparent KD of MS2 coat protein” value under setting [1] was determined as 33.8 nM.

“GAUUAUGCGAGCUUUAGGGACAUGAGGAUCACCCAUGUUCGUCUUAUUAGUCUAGGUACGCUAACAUACCUAAAUCU [JMF 40] (puzzle: Sensor v3, turn-off variant 1)”: the “apparent KD of MS2 coat protein” value reads like this: under setting [3], 20.2 nM; under setting [2], 35.9 nM; under setting [4], 22.8 nM.
